# Data taken from US20030092157, “Compositions, screening systems and methods for modulating HDL cholesterol and triglyceride levels” (published 2003).
# T1: LXRα/RXR heterodimer (expressed in Cos-1) (Homo sapiens? / Mus musculus?, UniProt Q13133;P28700 Q13133:1-447,P28700:1-467)
# T1 sequence 1: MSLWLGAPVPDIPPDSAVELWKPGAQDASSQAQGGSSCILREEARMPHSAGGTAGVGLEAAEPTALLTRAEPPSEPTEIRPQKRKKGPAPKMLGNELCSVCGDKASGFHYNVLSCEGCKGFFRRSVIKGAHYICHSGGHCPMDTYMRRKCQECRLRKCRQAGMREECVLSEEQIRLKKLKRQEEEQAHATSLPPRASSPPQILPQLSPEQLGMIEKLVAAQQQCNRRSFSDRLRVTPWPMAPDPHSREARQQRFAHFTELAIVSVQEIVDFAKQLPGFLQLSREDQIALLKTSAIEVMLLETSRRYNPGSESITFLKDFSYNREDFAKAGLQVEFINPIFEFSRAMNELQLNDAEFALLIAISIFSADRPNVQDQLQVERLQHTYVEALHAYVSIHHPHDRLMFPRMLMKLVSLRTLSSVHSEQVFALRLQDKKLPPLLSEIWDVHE
# T1 sequence 2: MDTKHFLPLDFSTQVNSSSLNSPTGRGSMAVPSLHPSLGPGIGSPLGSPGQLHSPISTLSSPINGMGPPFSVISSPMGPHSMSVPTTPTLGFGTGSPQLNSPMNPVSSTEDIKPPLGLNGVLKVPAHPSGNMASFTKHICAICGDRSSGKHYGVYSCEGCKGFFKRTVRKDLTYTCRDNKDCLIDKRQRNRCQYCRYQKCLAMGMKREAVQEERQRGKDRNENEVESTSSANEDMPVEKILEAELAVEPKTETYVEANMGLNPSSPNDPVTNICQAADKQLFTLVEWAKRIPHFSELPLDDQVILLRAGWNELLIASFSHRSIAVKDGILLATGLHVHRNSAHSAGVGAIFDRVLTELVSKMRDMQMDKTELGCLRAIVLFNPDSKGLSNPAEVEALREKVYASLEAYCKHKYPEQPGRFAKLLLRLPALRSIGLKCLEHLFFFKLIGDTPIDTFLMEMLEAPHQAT
# T2: LXRα/RXRα heterodimer (/ Mus musculus, UniProt Q13133;P28700 Q13133:1-447,P28700:1-467)
# T2 sequence 1: T1 sequence 1
# T2 sequence 2: T1 sequence 2
# B1: -7670 LXRE (ABC1 intron 1) (dsDNA)
# DNA 1: AGGTTACTGAAGGCCA
# DNA 2: TGGCCTTCAGTAACCT
# B2: -7188 LXRE (ABC1 intron 1) (dsDNA)
# DNA 1: AGATCACTTGAGGTCA
# DNA 2: TGACCTCAAGTGATCT
# B3: -4696 LXRE (ABC1 intron 1) (dsDNA)
# DNA 1: GGATCACCTGAGGTCA
# DNA 2: TGACCTCAGGTGATCC
# B4: +4-LXRE (ABC1 exon 1/promoter) (dsDNA)
# DNA 1: AGGTTACTATCGGTCA
# DNA 2: TGACCGATAGTAACCT
# How the values were obtained:
# [1] = biological target: T1, LXRα/RXR heterodimer (expressed in …); assay: cell_activity; 3 copies, luciferase, 1 µM 22(R)-hydroxycholesterol; text's "2-fold and 6-fold, respectively"
# Experimental: (§1) FIG. 3 is a bar graph illustrating that the LXREs are functional for LXRα transactivation. Cos-1 cells were cotransfected with multiple copies of the putative LXREs in the reporter plasmid TKpGI3 and expression plasmids for LXRα and RXR. Cells were then treated for 48 h with 1 μM 22(R)-hydroxycholesterol. Luciferase activity was determined and plotted as fold activation relative to vehicle-treated cells.
# (§2) Cells were transfected for 3 hours by lipofection using ExGen 500 (Euromedex) in OPTIMEM 1. Medium was then replaced by Dulbecco's Modified Eagle's Medium (DMEM) containing 0.2% fetal calf serum and cells were incubated for 48 hours. Cell extracts were prepared and assayed for luciferase activity as described(15). Twenty-four hours before transfection, HepG2 cells, HUH7 cells, CaCo2 cells and RK13 cells were plated in 24-well plates in DMEM supplemented with 10% fetal calf serum at 5×10⁴ cells/well. Transfection mixes contained 100 ng of tkpGI3 reporter vector or pGI3 containing an 8 kb fragment from ABC1 intron I (pGI3-8 kb) (FIG. 1). Cos-1 cells were plated in 24-well plates in DMEM supplemented with 10% fetal calf serum at 5×10⁴ cells/well. Transfection mixes contained 50 ng of reporter plasmid (tkpGI3) containing multiple copies of the putative LXREs and 25 ng of LXRα and RXR expression plasmids, in the presence of the internal control β-gal expression vector. […]
# LXRα/RXRα heterodimer [2] = biological target: T2, LXRα/RXRα heterodimer; assay: competition; dose-dependent competition, 5-, 25-, 50-fold excess; conditions: tags: pCDNA3-LXRα and pSG5-mRXRα, TNT coupled transcription/translation system (Promega)
# Experimental: (§3) For FIG. 2A, HepG2 (liver), HuH7 (hepatoma), CaCo₂ (intestinal) and RK13 (kidney) cell lines were cotransfected with empty pGI3 vector or pGI3 containing an 8 kb fragment upstream of exon 2 of ABC1 intron 1 (pGI3-8 kb). Cells were then incubated for 48 hour. Luciferase activity was determined and plotted as fold activation relative to empty pGI3-transfected cells. The results of gel mobility shift assays in which LXRα and RXR were incubated as indicated with the radiolabeled probe corresponding to CYP7-LXRE are shown in FIG. 2B.
# (§4) To investigate whether these DR4 were indeed able to bind LXR-RXR heterodimers, gel retardation assays were performed (FIG. 2B). […] As a control, the unlabeled LXRE previously described in ABC1 exon 1 (+4-LXRE) (10,11) also competed efficiently for binding. The signal was then competed with increasing quantities of each unlabeled putative LXRE.
# [3] = biological target: T1, LXRα/RXR heterodimer (expressed in …); assay: cell_activity; 3 copies, luciferase, 1 µM 22(R)-hydroxycholesterol
# Experimental: as §1, §2
# LXRα/RXRα heterodimer [4] = biological target: T2, LXRα/RXRα heterodimer; assay: competition; competed efficiently for CYP7-LXRE probe; conditions: tags: pCDNA3-LXRα and pSG5-mRXRα, TNT coupled transcription/translation system (Promega)
# Experimental: as §3, §4
binder,measurement,setting,value
B1,activity,[1],6 fold induction
B2,binding result,LXRα/RXRα heterodimer [2],binds
B3,activity,[3],2 fold induction
B4,binding result,LXRα/RXRα heterodimer [4],binds
